Assay: yeast display, Sf9 membrane polyspecificity reagent, FACS + sequencing; frameworks hold sequencing errors
Outline: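 Nanobodies from a synthetic yeast display library (Saccharomyces cerevisiae BJ5465), induced 36–48 hours with galactose, were stained 1 hour at 4 °C with 10% biotinylated, detergent-solubilized Sf9 membrane reagent, enriched on streptavidin microbeads, then FACS-sorted. Anti-HA (expression) and streptavidin (reagent binding) fluorescence set low and high (top ~1%) gates. Polyreactivity labels come from the gate of origin. Genes were colony-PCR amplified, MiSeq 2 × 250 sequenced and filtered by CDR length.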

Row | Sequence | polyreactivity (PSR sort gate)
1 | QVQLVESAGGLVQAGGSLRLSCASSGFTFKANAMGWYRQAPGKERELVAAISRRGSSTYYADSVKGRFTISRDNAKNTVYLQMNSLKPEDTAVYYCNTKPRAGRTKLGYWGQGTQVTVSS | high polyreactivity
2 | QVQLVESGGGLVQAGGSLRLSCAASGSTFWDYAMGWYRQAPGKERELVAAINSGDSTNYADSVKGRFTISRDNAKNTVYFQMNSLKPEDTAVYYCNVDWYDKGYGGYDYWGQGTQVTVSS | low polyreactivity
3 | QVQLVESGGGLVQAGGSLRLSCAASGSTFRQYAMGWYRQAPGKERELVAATTSSGGSTYYADSVKGRFTISRDNAKNTVYLQMNSLKPDDTAVYYCNVDGRSDGDDYWGQGTHVTVSS | low polyreactivity
4 | QVQLVESGGGLVQAGGSLRLSCAASGITFRHNTMGWYRQAPGKERELVSTNYADSVKGRFTISRDNAKNTVYLQMNSLKPEDTAVYYCNADGTFEYDYWGQGTQVTVSS | low polyreactivity
5 | QVQLVESGGGLVQAGGSLRLSCAASGRTFVRNAMGWYRQAPGKERELVAAISGSAGRTYYADSVKGRFTISRDNAKNTVYLQMNSLKPEDTAVYYCAKDTTVYGYYYWGQGTQVTVSS | high polyreactivity
6 | QVQLVESGGGLVQAGGSLRLSCAASGRTFYDYAMGWYRQAPGKERELVAAISSRGGRTYYADSVKGRFTISRDNAKNTVYLQMNSLKPEDSAVYYCAKVVDYNDRDSWGQGTQVTVSS | high polyreactivity
7 | QVQLLESGGGLVQAGGSLRLSCAASGSIIRQNGMVWYRPAPGKEREFVAAITRTGGSTYYADSVKGRFTISRDNAKNTVYLHMNSLKPEDTAGYYCAARGGYRYTRYDYWGQGTQVTVSS | high polyreactivity
8 | QVQLVESGGGLVQAGGSLRLSCAASGRTFTNNAMGWYRQAPGKERELVAAIRWSGGSTYYADSVKGRFTISRDNAKNTVYLQMNSLKPEDTAVYYCAKGYGYVEAVIVQYDYWGQGTQVTVSS | low polyreactivity
9 | QVQLVESGGGLVQAGGSLRLRCAASGSTFGYYSMGWYRQAPGKEMELVAAISKSGGRTYYADSVKGRFTISRDTAKNTVYVQMNSLKPEDTAVYYCNKANGGDEVDYWGQGTQVTVSS | high polyreactivity
10 | QVQLVESGGGLVQAGGSLRLSCAASGSIFYYYAMGWYRQAPGKERELVASITSGGRTYYADSVKGRFTISRDNAKNTVYFQMNSLKPEDTAVYYCAAVYGGLTLTRNYNWGQGTQVTVSS | high polyreactivity
11 | QVQLVESGGGLVQAGGSLRLSCAASGFTFAFYAMGWYSPAPGKVRELVAAISWDGVTTYYADSVKGRFTISRDNAKNTVYLQMNSLKPEDTAVYYCAADYPDYAASFWPSGMYYWGQGTQVTVSS | low polyreactivity
12 | QVQLVESGGGLVQAGGSLRLSCAASGSTFRLYAMGWYRQAPGKERELVAAISSRGGTTYYADSVKGRFTISRDNAKNTVYLQMNSLKPEDTAVYYCAAPRASQYGDDYWGQGTQVTVSS | high polyreactivity
13 | QVQLVESGGGLVQAGGSLRLSCAASGRTLGANAMGWYRQAPGKERELVAAITDSGGSTYYADSVKGRFTISRDNAKNTVYLQMNSLKPEDTAVYYCAAKQAYSSTYVWPIFDYWGQGTQVTVSS | low polyreactivity
14 | QVQHVESGRGLVQAGGSLRLSCAASGITFNQYAMGWYRQAPGKERELVAGISYSGGSTYYADSVKGRFTISRDNAKNTVYFQMISLKPEDTAVYYCAKRSPFTLDYWGQGTQVTVSS | high polyreactivity
15 | QVQLVESVGGLVQAGGSLRLSCAAYGLTFRYYAMGWYRQSPGKESELDAAISSGGSTNYADSVKGRFTISRDNAKNTVYLQMNSLKPEDTAVYYCAAVSNSKWGRWGRAKYNYWGQGTQVTVSS | high polyreactivity
16 | QVQLVESGGGLVQAGGILRLSCAASGRIFVFYFMGWYRQAPGKERELVAAITRTGGSTYYADSVKGRFTISRDNAKNTVYLQMNSLKPEDTAFYYCATRYTRFRHFDYWGQGSQVTVSS | low polyreactivity
17 | QVQLVESGGGLVQAGGSLRLSCAASGSIFLVYAMGWYRQAPGKERELVAGITSDDSTNYADSVKGRFTISRDNAKNTVYLQINRLKPEDTAVYYCAKDSLGLYIVDLGYWGQGTQVTVSS | low polyreactivity
18 | QVQLVESGGGLVQAGGSLRLSCAASGRTYYYNAMGWYREAPGKERELVARISQRTGSTYYADSVKGRFTISRDNAKNTVYLQMNSLKPEDTAVYYCAASSQTRQWTNDYWGQGTQVTVSS | high polyreactivity
19 | QVQLEESGGGLVQAGGSLRLSCAASGFTFYLYAMGWYRQAPGKERELVASISSGGRTYYADSVKGRFTISRDNAKNTVYLQMNSLKPEDTAVYYCAVSPYSRRKYEYYYWGQGTQVTVSS | high polyreactivity
20 | QVQLQESGGGLVQAGGSLRLSCAASGSIFNVVDMGLYRQAPAKEREFVATIGEGGNTYYADSLKGSFTISRDNAKNTVYLQMNSLKPEDTAVYFYAVVLGTSFRYTYWGQGTQVTVSS | low polyreactivity
21 | QVQLVESGGGLVQAGGSLRLSCAASGSTFYRNAMGWYRQAPGKERELVAAISRGGSTYYADSVKGRFTISRDNAKNTVYLQMNSLKPEDTAVYYCNTDVNYAGYGWYYYWGQGTQVTVSS | high polyreactivity
22 | QVQLVESGGGLVQAGGSLRLSCAASGRTFPGYAMGWYRQAPGKERELVAGISYRGGSTYYADSVKGRFTISRDIAKNTVYLQMNSLKPEDTAVYYCAREYSRHKGDYWGQGTQVTVSS | low polyreactivity

Row | Sequence | polyreactivity (PSR sort gate)
23 | QVQLQESGGGLVQAGGILRMSCAASGTIFSEANMGWYRQAPGKERELVATIGQGSTTNYADSVKGRFTISRDNAKNTVYLQMNSLKPEETAVYYCAVVTVDAVGFVYWCQGTQVTVSS | low polyreactivity
24 | QVQLVESGGGLVQAGGSHRLSCAASGSTFKDYAMVWYRQAPGKERELVASITESGGSTYYADSVKGRFTISRDNAKNTVYLQMNSLNPEDTAVYYCATDLIPEGSGYDYWGQGTQVTVSS | low polyreactivity
25 | QVQLVESVGGLVQAGGSLRLSCAASGRTLLYNAMGWYRQAPGKERELVAAISRGGSTYYADSVNGRFTISRDNAKNTVYLQMNSLKPEDTAVYYCATGTWRYRYDYWGQGTQVTVSS | low polyreactivity
26 | QDQLVESGGGLVQAGGSLRLRCAASGFTFGCYAMGWYRQAPGKERELVASITSGGSTNYADSVKGRFTISRDNAKNTVYLQMNTLKPEDTAVYYCAKDLLGFDKVQYKIEDYWGQGTQVTVSS | low polyreactivity
27 | QVQLVESGGGLDQAGRSLRLSCAASGFIFYYNAMGWYRQAPGKQRELVAAISSGGSTNYADSVKGRFTISRDNAKNTVYLQMNSLQPEDTAVYYCAKRPTGGYKYYYTTSKYDYWGQGTQVTVSS | low polyreactivity
28 | QVQLVESVGGLVQAGGSLRLSCAASGFIFSQYAMGWDRKAPGKERELVAAISKSGGRTYYADSVKGRFTFSRDNAKNTVYLQMNSLKPEDTAVYYCAAVSYSSYRYDYWGQGTQVTVSS | high polyreactivity
29 | QVQLVESGGRLVQAGGSLRLICAASGRIFKQYAMGWYRQSPGKERELVARITGSGSRTYYADSVKGRFTISRDNAKITVYIQMKSLKPEDTAVYYCAKDRYYGKRGGAWYDYWGQGTQVTVSS | low polyreactivity
30 | QGHLDESGGGIVQAGGSLRLSCAASGITVVTYAMGWYRQAPGKERELVAAISRSGGRTYYADSVKGRFTISRDNAKNTVYLLMNSLKPEDTAVYYCAAERKNKYDYWGQGTQVTVSS | high polyreactivity
31 | QDQLVESGGGLVQAGGSLRLICAASGFTITTYAMGWYRQAPGKERELVASISYSGGRTYYADSVKGRFTISRDNAKNTVYLQLNSLKPEDTAVYFCAAVGVRNRAPSRGGYWGQGPQVTVSS | high polyreactivity
32 | QVQLVESGGGLVQAGGSLRLSCAASGFTFIPNAMGWYRQAPGKERELVADITWSGGTTYYADSVKGRFTISRDNAKNTVYFQMNSLKPEDTAVYYCNADYLFYAFDYWGQGTQVTVSS | low polyreactivity
33 | QFQLVESGGGLVQAGGSLRLSCAASGFIFQEYAMGWYGQAPGKERELVAAITSGGSTNYADSVKGRFTISRDNAKNTVYLQMNSLKPEDTAVYYCNVDSPDYYYDYDYWGHGTQVTVSS | low polyreactivity
34 | QVQLVESGGGLVQAGGSLRLSCAASGSIFPSYAMGWYRQAPRKERELVATIGRGGTTNYADSVKGRFTISRDNAKNTVYLQMNSLKPEDTAVYSCNAERIWRYKDGYDYWGQGTQVTVSS | high polyreactivity
35 | QVQLVESGGGLVQAGGSLRLSCAASGSILYWYAMGWYRQAPGKERELVAAITSSGDSTDYADSVKGRFTISRDNAKKTVYLQMNILKPEDSAVYYCNVQPVYADHFTEFDYCGQGTQVTVSS | low polyreactivity
36 | QVQLVESGGGLDQAGGSLRLSSAASVSIFRYNTMGWYRPAPGKEREFVDSIRIGGSTYYADSVKGRFTISRDNAKNTVYLQMNSLKPEDTAVYYCAVRPYRSAGGSVTRGAYYYWGQGTQVTVSS | high polyreactivity
37 | QVHLQESGDGLLQAVGSLRLSCAASGYISGYYYRGWYRQAPGKERELVAGIDAFGSSTNYADCVKGRFTISRDNSTNTVYLQMNSLKPEDTAVYYWAARPDGDRLFSYWGQGTQVTVSS | low polyreactivity
38 | QVQLVESGGGLVQAGGSLRLSCAASGFTFGRNAMGWYRPAPGKEMELDATISKSGGSTYYEDSVKGRFTISRDNAKNTVYLQMYSLKPEDSAVYYCAARSRRLPGDYWGQATQVTVSS | low polyreactivity
39 | QVQLVESGGGLVQAGGSLRLSCAASGRIFGVYAMGWYRQAPGKERELVAAISFSGGRTYYADSVKGRFTISRDNAKNTVYLQMNSLKPEDTAVYYCAVRGYYSFLYSTAYDYWGQGTQVTVSS | low polyreactivity
40 | QGQLVESGGGLVQAGGSLRLSCAASGRTVGEYTMGWSRPAPGKERELVAAISSAGRTNYADSVKGRFTISRDNAKNTVYLQMHRLKPEDTAVYYCAADWTDDVPGYDYWGQGTKVTVSS | low polyreactivity
41 | QVQLVESGGGLVQAGGSLRLSCAASGRTFGAYAMGWYRQAPGKERELVAAISNGGRTYYADSVKGRFTISRDNAKNTVYLQMNSLKPEDTAVYYCNKVRSPWYDSWGQGTQVTVSS | high polyreactivity
42 | QVQLVESGGGLDQAGGSLRLSCAASGSIFGSYTLGGYRQAPGKERELVAVINWSGDRTYYADSVKGRFTISRDNAKNTVYLQMNSLKPEDTAVYYCAARERAAYSRIRYNYWGQGTQVTVSS | high polyreactivity
43 | QVQLVESGGGLVQAGGSLRLSCAPSGSIFVYYGMGWYRQAPRKERELVAAISSGGSTHYADSVKGRFTISRDNAKITVYLQMNSLKPEDTAVYYCAADRFFWLRSYPRYYYWGQGTQVTVSS | low polyreactivity
